Measurements: article PMC10533412 (Nature, 2023)

Biological target: the molecule itself
Assay: SEC-MALS; single protein at 5 mg/ml, Superdex 200, 20 mM HEPES pH 7.5, 150 mM NaCl

B1: BTN2A1 B30.2 domain (domain or fragment, human)
chain: EELRWRRTFLHAVDVVLDPDTAHPDLFLSEDRRSVRRCPFRHLGESVPDNPERFDSQPCVLGRESFASGKHYWEVEVENVIEWTVGVCRDSVERKGEVLLIPQNGFWTLEMHKGQYRAVSSPDRILPLKESLCRVGVFLDYEAGDVSFYNMRDRSHIYTCPRSAFSVPVRPFFRLGCEDSPIFICPALTGANGVTVPEEGLTLHRVGTHQSL
notes: butyrophilin 2A1 (BTN2A1), human, intracellular B30.2 domain with the C-terminal tail; Homodimer by SEC-MALS and in the crystals; source: E. coli BL21 (DE3), purified (Ni-NTA, TEV cleavage, Ni-NTA or DEAE Sepharose)
B1 was tested, and the “stoichiometry N” value was 2.
